Residue numbers refer to the chain shown, from its start. Names and notes keep the numbering of the source.
B1: HC-T030A (antibody, V domains shown)
VH: EVQLVQSGAEVKKPGATVKISCKVSGYSFAGHTMNWIRQPPGKGLEWIGLIKPSNGGTSYNQKFKGRVTISADKSISTAYLQWSSLKASDTAMYYCAHGHYESYFAMDYWGQGTLVTVSS
VL: DIQMTQSPSSLSASVGDRVTITCKASQDVSSAVAWYQQKPGQAPRLLIYWASTRHTGVPSRFSGSGSGTEFTLTISSLQPDDFATYYCQEHFSTPLTFGQGTKVEIK
B2: HC-N035I (antibody, V domains shown)
VH: B1 VH with A30T, N35I
VL: B1 VL
B3: HC-W110H (antibody, V domains shown)
VH: B1 VH with A30T, W110H
VL: B1 VL
B4: HC-E102N (antibody, V domains shown)
VH: B1 VH with A30T, E102N
VL: B1 VL
B5: HC-P053N (antibody, V domains shown)
VH: B1 VH with A30T, P53N
VL: B1 VL
B6: HC-E102R (antibody, V domains shown)
VH: B1 VH with A30T, E102R
VL: B1 VL
B7: HC-S059I (antibody, V domains shown)
VH: B1 VH with A30T, S59I
VL: B1 VL
B8: HC-E102V (antibody, V domains shown)
VH: B1 VH with A30T, E102V
VL: B1 VL
B9: HC-S059T (antibody, V domains shown)
VH: B1 VH with A30T, S59T
VL: B1 VL
B10: HC-E102Y (antibody, V domains shown)
VH: B1 VH with A30T, E102Y
VL: B1 VL
B11: HC-H100R (antibody, V domains shown)
VH: B1 VH with A30T, H100R
VL: B1 VL
B12: HC-S103D (antibody, V domains shown)
VH: B1 VH with A30T, S103D
VL: B1 VL
B13: HC-H100D (antibody, V domains shown)
VH: B1 VH with A30T, H100D
VL: B1 VL
B14: HC-E102L (antibody, V domains shown)
VH: B1 VH with A30T, E102L
VL: B1 VL
B15: HC-S103M (antibody, V domains shown)
VH: B1 VH with A30T, S103M
VL: B1 VL
B16: HC-H100E (antibody, V domains shown)
VH: B1 VH with A30T, H100E
VL: B1 VL
B17: HC-S103N (antibody, V domains shown)
VH: B1 VH with A30T, S103N
VL: B1 VL
B18: HC-H100W (antibody, V domains shown)
VH: B1 VH with A30T, H100W
VL: B1 VL
B19: HC-S103Q (antibody, V domains shown)
VH: B1 VH with A30T, S103Q
VL: B1 VL
B20: HC-H100P (antibody, V domains shown)
VH: B1 VH with A30T, H100P
VL: B1 VL
B21: HC-Y104C (antibody, V domains shown)
VH: B1 VH with A30T, Y104C
VL: B1 VL
B22: HC-Y101N (antibody, V domains shown)
VH: B1 VH with A30T, Y101N
VL: B1 VL
B23: HC-Y104E (antibody, V domains shown)
VH: B1 VH with A30T, Y104E
VL: B1 VL
B24: HC-E102F (antibody, V domains shown)
VH: B1 VH with A30T, E102F
VL: B1 VL
B25: HC-T033I (antibody, V domains shown)
VH: B1 VH with A30T, T33I
VL: B1 VL
B26: HC-Y104P (antibody, V domains shown)
VH: B1 VH with A30T, Y104P
VL: B1 VL
B27: HC-E102I (antibody, V domains shown)
VH: B1 VH with A30T, E102I
VL: B1 VL
B28: HC-F105N (antibody, V domains shown)
VH: B1 VH with A30T, F105N
VL: B1 VL
B29: HC-E102A (antibody, V domains shown)
VH: B1 VH with A30T, E102A
VL: B1 VL
B30: HC-F105S (antibody, V domains shown)
VH: B1 VH with A30T, F105S
VL: B1 VL
B31: HC-E102D (antibody, V domains shown)
VH: B1 VH with A30T, E102D
VL: B1 VL
B32: HC-F105T (antibody, V domains shown)
VH: B1 VH with A30T, F105T
VL: B1 VL
B33: HC-E102G (antibody, V domains shown)
VH: B1 VH with A30T, E102G
VL: B1 VL
B34: HC-F105V (antibody, V domains shown)
VH: B1 VH with A30T, F105V
VL: B1 VL

Columns and labels:
Axl protein [1] = molecular target: T1, Axl protein (human, UniProt P30530 26-451); experiment: ELISA, 1:3 dilution, pH 6.0 over pH 7.4
T1 construct: extracellular domain; also called human Axl; hAxl
T1 sequence (looked up): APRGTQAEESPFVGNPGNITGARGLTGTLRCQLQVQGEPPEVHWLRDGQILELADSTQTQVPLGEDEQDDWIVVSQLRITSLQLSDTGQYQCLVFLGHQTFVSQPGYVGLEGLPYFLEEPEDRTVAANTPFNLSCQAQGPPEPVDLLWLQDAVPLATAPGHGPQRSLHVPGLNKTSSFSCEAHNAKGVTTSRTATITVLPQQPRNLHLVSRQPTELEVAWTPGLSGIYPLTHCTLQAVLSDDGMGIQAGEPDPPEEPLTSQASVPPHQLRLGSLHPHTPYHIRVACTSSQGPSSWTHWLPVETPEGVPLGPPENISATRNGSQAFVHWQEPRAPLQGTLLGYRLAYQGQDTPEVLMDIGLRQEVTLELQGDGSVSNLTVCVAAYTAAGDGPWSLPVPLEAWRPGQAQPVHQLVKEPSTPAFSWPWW

Axl protein [2] = molecular target: T1, Axl protein; experiment: ELISA, 1:9 dilution, pH 6.0 over pH 7.4

Affinity ELISA CPE mutant ratio (1:3, pH 6.0/7.4) (Axl protein [1])	Affinity ELISA CPE mutant ratio (1:9, pH 6.0/7.4) (Axl protein [2])	Binder
1.29 ratio	1.76 ratio	B1
2.81 ratio	1.12 ratio	B2
7.99 ratio	0.932 ratio	B3
1.52 ratio	1.57 ratio	B4
1.4 ratio	1.89 ratio	B5
3.7 ratio	3.42 ratio	B6
30.5 ratio	2.06 ratio	B7
1.93 ratio	2.51 ratio	B8
1.02 ratio	1.93 ratio	B9
2.61 ratio	1.99 ratio	B10
1.88 ratio	2.51 ratio	B11
4.24 ratio	2.23 ratio	B12
2.42 ratio	3.09 ratio	B13
3.27 ratio	2.7 ratio	B14
1.78 ratio	1.81 ratio	B15
2.77 ratio	3.62 ratio	B16
1.07 ratio	3.18 ratio	B17

Affinity ELISA CPE mutant ratio (1:3, pH 6.0/7.4) (Axl protein [1])	Affinity ELISA CPE mutant ratio (1:9, pH 6.0/7.4) (Axl protein [2])	Binder
4.94 ratio	5.91 ratio	B18
0.912 ratio	2.26 ratio	B19
2.58 ratio	1.18 ratio	B20
1.84 ratio	1.74 ratio	B21
2.17 ratio	2.91 ratio	B22
1.32 ratio	1.8 ratio	B23
1.88 ratio	1.36 ratio	B24
1.59 ratio	1 ratio	B25
2.54 ratio	2.42 ratio	B26
2.02 ratio	1.7 ratio	B27
2.36 ratio	2.64 ratio	B28
1.54 ratio	1.69 ratio	B29
3.9 ratio	4.54 ratio	B30
2.67 ratio	2.85 ratio	B31
3.46 ratio	4.02 ratio	B32
1.8 ratio	2.68 ratio	B33
2.43 ratio	2.8 ratio	B34
